Measured values taken from the supplement of paper PMC9112550, “Optimization of the antimicrobial peptide Bac7 by deep mutational scanning” (BMC Biology, 2022).

What follows are sequences tested on Escherichia coli TOP10 (assay: shrunken log2 fold change of peptide-encoding DNA abundance (4.5 h post-induction vs induction); higher = less antimicrobial activity (less host growth inhibition)). Conditions: time post-induction: 4.5 h; library: site-saturation at positions 5, 18, 19, 20.
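Further: peptides expressed intracellularly from a pBAD plasmid library in pooled LB shake-flask culture, induced with 0.3% L-arabinose, DNA abundance read by NGS, three biological replicates, DESeq2 with apeglm shrinkage.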

Row | Sequence | shrunken log2 fold change
1 | RRIRIRPPRLPRPRPRPNISPRP | -0.199
2 | RRIRIRPPRLPRPRPRPNIWPRP | 0.127
3 | RRIRIRPPRLPRPRPRPNKHPRP | -0.727
4 | RRIRIRPPRLPRPRPRPNLAPRP | -0.114
5 | RRIRIRPPRLPRPRPRPNLQPRP | -0.285
6 | RRIRIRPPRLPRPRPRPNNAPRP | -0.444
7 | RRIRIRPPRLPRPRPRPNPIPRP | -0.155
8 | RRIRIRPPRLPRPRPRPNPRPRP | -0.225
9 | RRIRIRPPRLPRPRPRPNPSPRP | 0.0641
10 | RRIRIRPPRLPRPRPRPNPYPRP | -0.659
11 | RRIRIRPPRLPRPRPRPNTQPRP | -0.295
12 | RRIRIRPPRLPRPRPRPPASPRP | 0.276
13 | RRIRIRPPRLPRPRPRPPAYPRP | -0.384
14 | RRIRIRPPRLPRPRPRPPCDPRP | -0.48
15 | RRIRIRPPRLPRPRPRPPCKPRP | -0.422
16 | RRIRIRPPRLPRPRPRPPCMPRP | -0.169
17 | RRIRIRPPRLPRPRPRPPFDPRP | -0.0876
18 | RRIRIRPPRLPRPRPRPPFHPRP | -0.513
19 | RRIRIRPPRLPRPRPRPPFRPRP | -0.0473
20 | RRIRIRPPRLPRPRPRPPHGPRP | -0.0482
21 | RRIRIRPPRLPRPRPRPPHWPRP | 0.0943
22 | RRIRIRPPRLPRPRPRPPKRPRP | 0.0802
23 | RRIRIRPPRLPRPRPRPPKYPRP | -0.886
24 | RRIRIRPPRLPRPRPRPPMWPRP | 0.00227
25 | RRIRIRPPRLPRPRPRPPPFPRP | 0.481

Row | Sequence | shrunken log2 fold change
26 | RRIRIRPPRLPRPRPRPPPVPRP | 0.414
27 | RRIRIRPPRLPRPRPRPPRHPRP | 0.166
28 | RRIRIRPPRLPRPRPRPPSNPRP | -0.613
29 | RRIRIRPPRLPRPRPRPPTHPRP | -0.184
30 | RRIRIRPPRLPRPRPRPPVGPRP | 0.59
31 | RRIRIRPPRLPRPRPRPPYAPRP | -0.274
32 | RRIRIRPPRLPRPRPRPQAAPRP | -0.115
33 | RRIRIRPPRLPRPRPRPQALPRP | -0.0788
34 | RRIRIRPPRLPRPRPRPQDAPRP | -0.449
35 | RRIRIRPPRLPRPRPRPQDCPRP | 0.00138
36 | RRIRIRPPRLPRPRPRPQDNPRP | -0.954
37 | RRIRIRPPRLPRPRPRPQFFPRP | -0.304
38 | RRIRIRPPRLPRPRPRPQFPPRP | -0.0492
39 | RRIRIRPPRLPRPRPRPQHEPRP | -0.262
40 | RRIRIRPPRLPRPRPRPQHRPRP | -0.116
41 | RRIRIRPPRLPRPRPRPQKCPRP | -0.506
42 | RRIRIRPPRLPRPRPRPQKRPRP | -0.143
43 | RRIRIRPPRLPRPRPRPQLCPRP | -0.222
44 | RRIRIRPPRLPRPRPRPQLFPRP | 0.667
45 | RRIRIRPPRLPRPRPRPQNAPRP | -0.297
46 | RRIRIRPPRLPRPRPRPQNMPRP | -0.235
47 | RRIRIRPPRLPRPRPRPQNSPRP | -0.595
48 | RRIRIRPPRLPRPRPRPQPSPRP | -0.214
49 | RRIRIRPPRLPRPRPRPQQEPRP | -0.056
50 | RRIRIRPPRLPRPRPRPQQFPRP | -0.709

Row | Sequence | shrunken log2 fold change
51 | RRIRIRPPRLPRPRPRPQQPPRP | 0.349
52 | RRIRIRPPRLPRPRPRPQRHPRP | -0.401
53 | RRIRIRPPRLPRPRPRPQSAPRP | 0.0313
54 | RRIRIRPPRLPRPRPRPQSGPRP | 0.00632
55 | RRIRIRPPRLPRPRPRPQTDPRP | -0.232
56 | RRIRIRPPRLPRPRPRPQTKPRP | 0.13
57 | RRIRIRPPRLPRPRPRPQTMPRP | -0.0804
58 | RRIRIRPPRLPRPRPRPQTPPRP | -0.0927
59 | RRIRIRPPRLPRPRPRPQVQPRP | -0.195
60 | RRIRIRPPRLPRPRPRPQVYPRP | 0.0822
61 | RRIRIRPPRLPRPRPRPRAAPRP | 0.458
62 | RRIRIRPPRLPRPRPRPRAVPRP | 0.314
63 | RRIRIRPPRLPRPRPRPRCAPRP | 0.204
64 | RRIRIRPPRLPRPRPRPRDFPRP | -0.157
65 | RRIRIRPPRLPRPRPRPRENPRP | 0.0178
66 | RRIRIRPPRLPRPRPRPRIGPRP | -0.0469
67 | RRIRIRPPRLPRPRPRPRITPRP | -0.354
68 | RRIRIRPPRLPRPRPRPRLFPRP | 0.0705
69 | RRIRIRPPRLPRPRPRPRLNPRP | -0.247
70 | RRIRIRPPRLPRPRPRPRLPPRP | 0.161
71 | RRIRIRPPRLPRPRPRPRLSPRP | -0.325
72 | RRIRIRPPRLPRPRPRPRNIPRP | -0.00545
73 | RRIRIRPPRLPRPRPRPRNRPRP | -0.125
74 | RRIRIRPPRLPRPRPRPRQDPRP | 0.0231
75 | RRIRIRPPRLPRPRPRPRRYPRP | 0.111
